The source of these data is publication PMC4260089 (The Plant Journal, 2014).

Series [1] concerns the molecule itself. As to the kind of experiment: SEC. (Size exclusion chromatography separates by hydrodynamic size, large species first.)
The target in series [2] is T1, SERK3^250–615 (entire cytoplasmic portion, JM–KD–CT) (Arabidopsis thaliana), Q94F62.
T1 chain: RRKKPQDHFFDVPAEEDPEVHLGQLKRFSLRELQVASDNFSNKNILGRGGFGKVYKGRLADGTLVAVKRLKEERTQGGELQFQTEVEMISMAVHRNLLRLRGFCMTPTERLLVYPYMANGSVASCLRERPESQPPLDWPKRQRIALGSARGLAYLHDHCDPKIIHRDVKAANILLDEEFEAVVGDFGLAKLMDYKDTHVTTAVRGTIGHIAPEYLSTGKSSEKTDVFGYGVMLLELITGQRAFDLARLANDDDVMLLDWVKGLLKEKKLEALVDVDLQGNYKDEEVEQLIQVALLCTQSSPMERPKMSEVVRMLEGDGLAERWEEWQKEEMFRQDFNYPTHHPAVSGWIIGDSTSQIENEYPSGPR
As to the kind of experiment: SEC. The following applies: remark: other sources report otherwise.

B1: SERK2^281–628 (cytoplasmic portion, JM–KD–CT) (domain or fragment, Arabidopsis thaliana, UniProt Q9XIC7 281-628, looked up)
chain: EDPEVHLGQLKRFSLRELQVATDSFSNKNILGRGGFGKVYKGRLADGTLVAVKRLKEERTPGGELQFQTEVEMISMAVHRNLLRLRGFCMTPTERLLVYPYMANGSVASCLRERPPSQLPLAWSIRQQIALGSARGLSYLHDHCDPKIIHRDVKAANILLDEEFEAVVGDFGLARLMDYKDTHVTTAVRGTIGHIAPEYLSTGKSSEKTDVFGYGIMLLELITGQRAFDLARLANDDDVMLLDWVKGLLKEKKLEMLVDPDLQSNYTEAEVEQLIQVALLCTQSSPMERPKMSEVVRMLEGDGLAEKWDEWQKVEVLRQEVELSSHPTSDWILDSTDNLHAMELSGPR
As for B1, in series [1], the stoichiometry N (commonly a count of units in the complex or per binding partner) worked out at 2.

B2: SERK3^250–615 (entire cytoplasmic portion, JM–KD–CT), Q94F62 250-615 (domain or fragment)
chain: RRKKPQDHFFDVPAEEDPEVHLGQLKRFSLRELQVASDNFSNKNILGRGGFGKVYKGRLADGTLVAVKRLKEERTQGGELQFQTEVEMISMAVHRNLLRLRGFCMTPTERLLVYPYMANGSVASCLRERPESQPPLDWPKRQRIALGSARGLAYLHDHCDPKIIHRDVKAANILLDEEFEAVVGDFGLAKLMDYKDTHVTTAVRGTIGHIAPEYLSTGKSSEKTDVFGYGVMLLELITGQRAFDLARLANDDDVMLLDWVKGLLKEKKLEALVDVDLQGNYKDEEVEQLIQVALLCTQSSPMERPKMSEVVRMLEGDGLAERWEEWQKEEMFRQDFNYPTHHPAVSGWIIGDSTSQIENEYPSGPR
The molecule B2 displayed a stoichiometry N in series [2] of 2.
